Residue numbers refer to the chain shown, from its start.

Assay [1] deals with T1, human DR4 (Death Receptor 4), cell surface expressed on human tumor cell lines (human, UniProt O00220 24-468).
T1 construct: also called TNFRSF10A; TRAIL-R1
T1 sequence: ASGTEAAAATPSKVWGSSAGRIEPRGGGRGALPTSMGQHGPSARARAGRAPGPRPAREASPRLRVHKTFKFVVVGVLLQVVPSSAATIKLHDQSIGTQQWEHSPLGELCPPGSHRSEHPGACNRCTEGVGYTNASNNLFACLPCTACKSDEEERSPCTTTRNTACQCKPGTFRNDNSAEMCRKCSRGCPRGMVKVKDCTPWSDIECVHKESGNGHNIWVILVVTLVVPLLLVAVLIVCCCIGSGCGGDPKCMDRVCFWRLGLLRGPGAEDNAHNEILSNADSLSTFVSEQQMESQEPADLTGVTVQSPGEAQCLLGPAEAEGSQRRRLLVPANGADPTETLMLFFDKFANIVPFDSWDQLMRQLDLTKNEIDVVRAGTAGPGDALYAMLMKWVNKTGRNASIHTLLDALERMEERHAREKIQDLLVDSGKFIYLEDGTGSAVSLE
The assay is described as follows: flow cytometry, MDA-MB-231 cells, N = 1. On the technique in general: In flow cytometry, cells or beads pass a laser one at a time.

The target in assay [2] is T2, human FAPα (Fibroblast activation protein alpha), cell surface expressed (human, UniProt Q12884 1-760).
T2 construct: Endogenous on human lung fibroblasts and CAFs
T2 sequence: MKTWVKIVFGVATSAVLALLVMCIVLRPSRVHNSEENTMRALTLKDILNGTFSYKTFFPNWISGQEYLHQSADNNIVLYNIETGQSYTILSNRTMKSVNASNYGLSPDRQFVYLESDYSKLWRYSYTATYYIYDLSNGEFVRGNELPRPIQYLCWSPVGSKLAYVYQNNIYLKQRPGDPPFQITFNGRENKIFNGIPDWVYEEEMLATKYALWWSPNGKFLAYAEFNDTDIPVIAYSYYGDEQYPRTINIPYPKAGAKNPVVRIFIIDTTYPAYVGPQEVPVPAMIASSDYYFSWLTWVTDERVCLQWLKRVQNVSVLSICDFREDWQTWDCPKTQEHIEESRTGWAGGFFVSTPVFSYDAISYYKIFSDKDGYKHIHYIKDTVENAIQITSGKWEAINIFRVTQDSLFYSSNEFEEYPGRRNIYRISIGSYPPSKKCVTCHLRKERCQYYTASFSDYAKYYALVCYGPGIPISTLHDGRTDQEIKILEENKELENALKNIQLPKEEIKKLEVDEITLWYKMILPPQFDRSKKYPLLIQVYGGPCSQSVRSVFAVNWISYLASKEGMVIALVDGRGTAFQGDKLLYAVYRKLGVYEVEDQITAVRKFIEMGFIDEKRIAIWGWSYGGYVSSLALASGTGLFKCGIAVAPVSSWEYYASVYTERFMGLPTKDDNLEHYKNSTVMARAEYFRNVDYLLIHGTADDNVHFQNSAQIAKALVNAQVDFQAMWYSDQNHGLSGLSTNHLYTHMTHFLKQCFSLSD
The assay is described as follows: flow cytometry, human lung fibroblasts, n = 2. How it is done: Binding of bispecific or monoclonal antibodies carrying the anti-FAPα arm derived from IgG1-FAPα-FERL (BisG1-FAPα-FERL/DR4-FERR, BisG1-FAPα-FERL/b12-FERR, and IgG1-FAPα-FERL) to cell surface expressed human FAPα was analyzed by flow cytometry using human lung fibroblasts and CAFs, which endogenously express FAPα. BisG1-b12-FERL/b12-FERR was used as negative control.
Human lung fibroblasts and CAFs (50,000 cells/well) were seeded in 96-Well round bottom plates (Greiner Bio-one, Cat #650101). Antibody dilutions were prepared using fluorescence-activated cell sorting (FACS) buffer, consisting of phosphate buffer saline (PBS, Lonza, Cat #BE17-517Q)+1% Bovine Serum Albumin (BSA, Roche, Cat #10735086001)+0.02% Sodium Azide (Bio-World, Cat #41920044-3). Plates were centrifuged, supernatant was removed, cells were resuspended in 50 μL of human Fc Block (BD, Cat #564220, diluted 1:100 in FACS buffer) and 50 μL of viability stain TO-PRO-3 Iodide (Thermo Fisher, Cat #T3605, diluted 1: 25,000 in FACS buffer), and incubated for 15 min at 4° C. Plates were washed three times with FACS buffer. Plates were centrifuged, supernatant was removed, cells were resuspended in 50 μL of antibody dilutions (concentration range 90-0.0005 μg/mL, three-fold dilution steps using FACS buffer) of BisG1-FAPα-FERL/DR4-FERR, BisG1-FAPα-FERL/b12-FERR, BisG1-b12-FERL/b12-FERR (top six concentrations only for CAFs culture) or IgG1-FAPα-FERL (top four concentrations only for CAFs culture) and incubated for 30 min at 4° C. Cells were washed three times with FACS buffer and resuspended in 50 μL of Fluorescein isothiocyanate (FITC)-labeled polyclonal antibody goat anti-mouse IgG1 (Jackson Immuno Research, Cat #109-096-097, diluted 1:100 in FACS buffer). […] Antibody binding to viable cells (TO-PRO-3 negative) was analyzed by flow cytometry on a FACSCelesta™ (BD biosciences) and data were processed using FlowJo_v10.8.1 (FlowJo LLC). Geomean fluorescence intensity, gMFI, was determined and visualized using GraphPad Prism.

B1: IgG1-DR4-FERR (antibody, V domains shown)
VH: QVQLQESGPGLVKPSGTLSLTCAVSGGSISSYSWWSWIRQPPGKGLEWIGELYHSGSTNYNPSLKSRVTISVDKSKNQFSLKLRSVTAADTAVYYCVRGVATIDYWGQGTLVTVSS
VL: QSALTQPPSASGSPGQSVTISCTGTSSDVGGYNFVSWYQQDPGKAPKLLIYEVTKRPSGVPDRFSGSKSGNTASLTVSGLQAEDEADYYCSSYAGSNNVMFGGGTKLTVLG
notes: Bivalent monoclonal IgG1 lambda
Broadly, the EC50 is the midpoint of the concentration-response curve. Read a low EC50 as a more potent agent. The molecule B1 showed an EC50 in assay [1] of 0.24 µg/mL.

B2: BisG1-FAPα-FERL/DR4-FERR (bispecific antibody, human IgG1, kappa, lambda)
heavy 1: EVQLLESGGGLVQPGGSPRLSCEASGFTFSSYALSWVRQAPGKGLEWVSAISGSGGGRYYADSVKGRFTISRDNSKNTLFLQMNSLRAEDTAVYYCAKEGYSSSGTYWDHWGQGTLVTVSSASTKGPSVFPLAPSSKSTSGGTAALGCLVKDYFPEPVTVSWNSGALTSGVHTFPAVLQSSGLYSLSSVVTVPSSSLGTQTYICNVNHKPSNTKVDKRVEPKSCDKTHTCPPCPAPEFERGPSVFLFPPKPKDTLMISRTPEVTCVVVDVSHEDPEVKFNWYVDGVEVHNAKTKPREEQYNSTYRVVSVLTVLHQDWLNGKEYKCKVSNKALPAPIEKTISKAKGQPREPQVYTLPPSREEMTKNQVSLTCLVKGFYPSDIAVEWESNGQPENNYKTTPPVLDSDGSFLLYSKLTVDKSRWQQGNVFSCSVMHEALHNHYTQKSLSLSPG
light 1: AIQMTQSPSSVSASVGDRVTITCRASQGVSSWLAWYQQKPGRAPKLLIYVASTLQSGVPSRFSGSGSGTDFTLTINSLQPEDFATYYCQQANSFPPTFGQGTRLEMKRTVAAPSVFIFPPSDEQLKSGTASVVCLLNNFYPREAKVQWKVDNALQSGNSQESVTEQDSKDSTYSLSSTLTLSKADYEKHKVYACEVTHQGLSSPVTKSFNRGEC
heavy 2: QVQLQESGPGLVKPSGTLSLTCAVSGGSISSYSWWSWIRQPPGKGLEWIGELYHSGSTNYNPSLKSRVTISVDKSKNQFSLKLRSVTAADTAVYYCVRGVATIDYWGQGTLVTVSSASTKGPSVFPLAPSSKSTSGGTAALGCLVKDYFPEPVTVSWNSGALTSGVHTFPAVLQSSGLYSLSSVVTVPSSSLGTQTYICNVNHKPSNTKVDKRVEPKSCDKTHTCPPCPAPEFERGPSVFLFPPKPKDTLMISRTPEVTCVVVDVSHEDPEVKFNWYVDGVEVHNAKTKPREEQYNSTYRVVSVLTVLHQDWLNGKEYKCKVSNKALPAPIEKTISKAKGQPREPQVYTLPPSREEMTKNQVSLTCLVKGFYPSDIAVEWESNGQPENNYKTTPPVLDSDGSFFLYSRLTVDKSRWQQGNVFSCSVMHEALHNHYTQKSLSLSPG
light 2: QSALTQPPSASGSPGQSVTISCTGTSSDVGGYNFVSWYQQDPGKAPKLLIYEVTKRPSGVPDRFSGSKSGNTASLTVSGLQAEDEADYYCSSYAGSNNVMFGGGTKLTVLGQPKAAPSVTLFPPSSEELQANKATLVCLISDFYPGAVTVAWKADSSPVKAGVETTTPSKQSNNKYAASSYLSLTPEQWKSHRSYSCQVTHEGSTVEKTVAPTECS
notes: Human IgG1 bispecific made by controlled Fab-arm exchange of IgG1-FAPα-FERL and IgG1-DR4-FERR; monovalent for FAPα and for DR4; also called GEN1057
On to B2, for which the EC50 in assay [2] turned out to be 0.047 µg/mL; in assay [1], 0.71 µg/mL.

B3: BisG1-b12-FERL/DR4-FERR (bispecific antibody, human IgG1, kappa, lambda)
heavy 1: QVQLVQSGAEVKKPGASVKVSCQASGYRFSNFVIHWVRQAPGQRFEWMGWINPYNGNKEFSAKFQDRVTFTADTSANTAYMELRSLRSADTAVYYCARVGPYSWDDSPQDNYYMDVWGKGTTVIVSSASTKGPSVFPLAPSSKSTSGGTAALGCLVKDYFPEPVTVSWNSGALTSGVHTFPAVLQSSGLYSLSSVVTVPSSSLGTQTYICNVNHKPSNTKVDKRVEPKSCDKTHTCPPCPAPEFERGPSVFLFPPKPKDTLMISRTPEVTCVVVDVSHEDPEVKFNWYVDGVEVHNAKTKPREEQYNSTYRVVSVLTVLHQDWLNGKEYKCKVSNKALPAPIEKTISKAKGQPREPQVYTLPPSREEMTKNQVSLTCLVKGFYPSDIAVEWESNGQPENNYKTTPPVLDSDGSFLLYSKLTVDKSRWQQGNVFSCSVMHEALHNHYTQKSLSLSPG
light 1: EIVLTQSPGTLSLSPGERATFSCRSSHSIRSRRVAWYQHKPGQAPRLVIHGVSNRASGISDRFSGSGSGTDFTLTITRVEPEDFALYYCQVYGASSYTFGQGTKLERKRTVAAPSVFIFPPSDEQLKSGTASVVCLLNNFYPREAKVQWKVDNALQSGNSQESVTEQDSKDSTYSLSSTLTLSKADYEKHKVYACEVTHQGLSSPVTKSFNRGEC
heavy 2: B2 heavy 2
light 2: B2 light 2
notes: Fab-arm exchange of IgG1-b12-FERL and IgG1-DR4-FERR; also called bsIgG1-ctrl-FERLxDR4-FERR
As for B3, in assay [1], a half-maximal effect (EC50) was put at 0.39 µg/mL and the “Max MFI (at 90 µg/mL)” value was 7840 MFI.

B4: IgG1-FAPα-FERL (antibody)
heavy: B2 heavy 1
light: B2 light 1
notes: Bivalent monoclonal IgG1 kappa
Molecule B4 came in with an EC50 in assay [2] of 0.006 µg/mL.

B5: BisG1-FAPα-FERL/b12-FERR (bispecific antibody, human IgG1, kappa)
heavy 1: B2 heavy 1
light 1: B2 light 1
heavy 2: B3 heavy 1 with L415F, K419R
light 2: B3 light 1
The molecule B5 gave an EC50 in assay [2] of 0.034 µg/mL.
